Reference: publication PMC5620080, “The cryo-EM structure of hibernating 100S ribosome dimer from pathogenic Staphylococcus aureus” (Nature Communications, 2017)

Key:
[1] = target: the molecule itself; test: cryo-EM structure; native 100S ribosome dimers purified from S. aureus; 6.8 Å map of the 100S, 6.7 Å focused map of the dimer interface (C2 symmetry), 3.2 Å masked 30S map
[2] = target: the molecule itself; test: SEC; Superdex-200 Increase 10/300 GL; 20 mM Tris pH 7.9, 20 mM MgCl2, 250 mM NH4Cl, 10 mM KCl; 0.5 ml/min; 50 µg of purified HPFSA protein; apparent molecular weights from a standard curve

B1: S. aureus hibernating promoting factor (HPFSA), full length, in the native 100S ribosome (natural protein, UniProt Q2FIN9 1-190, looked up)
chain: MIRFEIHGDNLTITDAIRNYIEEKIGKLERYFNDVPNAVAHVKVKTYSNSATKIEVTIPLKNVTLRAEERNDDLYAGIDLINNKLERQVRKYKTRINRKSRDRGDQEVFVAELQEMQETQVDNDAYDDNEIEIIRSKEFSLKPMDSEEAVLQMNLLGHDFFVFTDRETDGTSIVYRRKDGKYGLIQTSEQ
notes: hibernating promoting factor (HPF), Staphylococcus aureus JE2 (USA300), full-length hpf under its native promoter; residues 1-190; first 100 residues modelled, C-terminal domain fitted as a homology model; Two copies in the 100S dimer, one for each 70S; also called long HPF; N-HPFSA (N-terminal domain); source: S. aureus hpf-knockout strain (USA300, JE2) with plasmid pLI50hpf; isolated with the …
[1]
  binding result: binds

B2: recombinant His-tagged full-length HPF (HPFSA) (natural protein, S. aureus, UniProt Q2FIN9 1-190, looked up)
chain: MIRFEIHGDNLTITDAIRNYIEEKIGKLERYFNDVPNAVAHVKVKTYSNSATKIEVTIPLKNVTLRAEERNDDLYAGIDLINNKLERQVRKYKTRINRKSRDRGDQEVFVAELQEMQETQVDNDAYDDNEIEIIRSKEFSLKPMDSEEAVLQMNLLGHDFFVFTDRETDGTSIVYRRKDGKYGLIQTSEQ
notes: hibernating promoting factor (HPF), Staphylococcus aureus, full length; also called full-length HPFSA protein; source: E. coli BL21(DE3), pET28a, purified
[2]
  binding result: binds
